The target of this assay is SAR1A (human) (UniProt Q9NR31). In words: liposome flotation assay; SAR1 and SEC31A-af incubated with 100-nm synthetic liposomes and GMP-PNP, 30 min at 37 °C, floated through a sucrose gradient in HKM buffer (pH 6.8); SDS-PAGE and SYPRO-Ruby staining; SEC31-af signal normalized to SAR1.

As to “GTPase-activating fragment of SEC31A (from UniProt O94979 1-1220) (domain or fragment)”, the fold recruitment relative to SAR1B was 2 fold.

Source of the values: PMC7307210.
